The results in this text go back to patent US20190375839A1 (JIANGSU HENGRUI MEDICINE, published 2019).

Experiment [1] deals with T1, human TIM-3 full length, overexpressed on CHO-S cells (human, UniProt Q8TDQ0 22-301).
T1 construct: cells fixed with 4% PFA on plates; also called HAVCR2; Tim-3-overexpressing CHO-S cells
Nature of the experiment: cell-based ELISA on fixed CHO-S cells overexpressing human TIM-3.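 Further: antibody binding at serial dilutions to PFA-fixed cells for 1 h at 37 °C, read as TMB colour signal after acid stop.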
Experimental: (§1) The binding activity of anti-TIM-3 antibody to CHO-S cells overexpressing human TIM-3 is detected via a binding assay. […] TIM-3-overexpressing cells were immobilized on a 96-well plate. After the addition of the antibody, signal strength was used to determine the binding activity of the antibody to Tim-3-overexpressing CHO-S cells.
(§2) The cells were inoculated on a 96-well plate with 4E5/ml density, 100 μg/well, and cultured overnight. Supernatant was discarded and the plate was washed three times with PBS. 100 μl/well of 4% PFA was added into each well, and the plate was fixed at room temperature for 30 minutes. The plate was washed three times with PBS. The liquid was discarded, and 200 μl of blocking solution (5% skim milk (Guangming skim milk powder) diluted with PBS) was added to each well. The plate was incubated at 37° C. for 2.5 h. Then the blocking solution was discarded, and the plate was washed 5 times with PBST buffer (pH 7.4 PBS containing 0.05% Tween-20). 50 μl/well of various concentrations of antibodies to be tested (antibody via hybridoma purification or humanized antibody), diluted with sample buffer, were added into each well, and incubated at 37° C. for 1 h. […] The plate was washed 6 times with PBST, and 100 μl/well TMB chromogenic substrates (KPL, Cat, No., 52-00-03) was added to each well. The plate was incubated at room temperature for 5-15 min. Reaction was stopped by the addition of 50 μl of 1 M H₂SO₄ to each well.

For experiment [2], the target named is T2, Extracellular domain of TIM-3 with Flag and His tag (human).
T2 construct: also called TIM-3-Flag-His
As to the kind of experiment: Biacore SPR; antibody captured by anti-human capture antibody on CM5, TIM-3-Flag-His in mobile phase.
Text: The reaction signal was detected in real-time using Biacore instrument to obtain the association and dissociation curves. […] In the experiment, after each cycle of dissociation was finished, the biosensor chip was washed with the regenerative solution in the human capture antibody Kit.

In experiment [3] the target is T1, human TIM-3 full length, overexpressed …. As to the kind of experiment: cell-based ELISA on CHO-S cells overexpressing human TIM-3.
Experimental: as §1, §2
Experiment [4] concerns the target T2, Extracellular domain of TIM-3 with Flag …. Nature of the experiment: Biacore SPR; antibody as stationary phase, 'TIM-3-His' as mobile phase.
Experiment [5] concerns the target T1, human TIM-3 full length, overexpressed …. Nature of the experiment: cell-based ELISA on fixed CHO-S cells overexpressing human TIM-3, HRP-labeled secondary antibody, OD450.

B1: h1799-005 (antibody, human IgG4 S228P, kappa)
heavy: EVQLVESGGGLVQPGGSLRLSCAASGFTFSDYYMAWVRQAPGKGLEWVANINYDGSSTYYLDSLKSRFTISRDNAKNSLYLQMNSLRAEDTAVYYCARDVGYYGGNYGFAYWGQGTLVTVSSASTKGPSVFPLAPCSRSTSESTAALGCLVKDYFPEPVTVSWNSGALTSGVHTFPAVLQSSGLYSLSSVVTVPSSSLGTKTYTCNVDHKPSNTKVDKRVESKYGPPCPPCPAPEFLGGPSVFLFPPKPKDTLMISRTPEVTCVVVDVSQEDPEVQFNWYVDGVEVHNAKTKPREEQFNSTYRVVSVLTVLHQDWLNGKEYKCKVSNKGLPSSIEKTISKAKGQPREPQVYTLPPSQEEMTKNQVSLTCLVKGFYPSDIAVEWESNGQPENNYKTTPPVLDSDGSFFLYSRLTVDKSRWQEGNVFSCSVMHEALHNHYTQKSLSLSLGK
light: DIQMTQSPSSLSASVGDRVTITCRASDNIYSYLAWYQQKPGKAPKLLIYNAKTLAEGVPSRFSGSGSGTDFTLTISSLQPEDFATYYCQQHYGSPLTFGQGTKLEIKRTVAAPSVFIFPPSDEQLKSGTASVVCLLNNFYPREAKVQWKVDNALQSGNSQESVTEQDSKDSTYSLSSTLTLSKADYEKHKVYACEVTHQGLSSPVTKSFNRGEC
notes: Humanized IgG4 (S228P)/kappa
Molecule B1 gave an EC50 in experiment [1] of 0.063 nM. Binding in experiment [2] was characterised by a dissociation constant (Kd) of 1.78 nM.

B2: h1799-006 (antibody, human IgG4 S228P, kappa)
heavy: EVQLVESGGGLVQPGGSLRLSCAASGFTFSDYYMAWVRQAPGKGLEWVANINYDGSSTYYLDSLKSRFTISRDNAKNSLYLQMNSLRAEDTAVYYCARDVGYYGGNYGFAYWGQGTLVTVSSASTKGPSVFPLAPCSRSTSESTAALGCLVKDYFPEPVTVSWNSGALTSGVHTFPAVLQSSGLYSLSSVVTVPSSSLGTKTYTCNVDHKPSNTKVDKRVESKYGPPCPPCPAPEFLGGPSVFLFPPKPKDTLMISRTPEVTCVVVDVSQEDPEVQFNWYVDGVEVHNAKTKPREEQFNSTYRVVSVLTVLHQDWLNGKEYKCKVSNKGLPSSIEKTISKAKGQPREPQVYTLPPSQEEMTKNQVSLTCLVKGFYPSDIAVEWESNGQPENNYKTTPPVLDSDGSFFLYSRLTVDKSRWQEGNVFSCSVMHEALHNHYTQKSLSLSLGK
light: DIQMTQSPSSLSASVGDRVTITCRASDNIYSYLAWYQQKPGKAPKLLVYNAKTLAEGVPSRFSGSGSGTDFTLTISSLQPEDFATYYCQQHYGSPLTFGQGTKLEIKRTVAAPSVFIFPPSDEQLKSGTASVVCLLNNFYPREAKVQWKVDNALQSGNSQESVTEQDSKDSTYSLSSTLTLSKADYEKHKVYACEVTHQGLSSPVTKSFNRGEC
notes: Humanized IgG4 (S228P)/kappa
B2 registered a concentration for a half-maximal effect (EC50) in experiment [1] of 0.095 nM. For the same molecule, in experiment [2], binding was put at a Kd of 1.89 nM.

B3: h1799-010 (antibody, human IgG4 S228P, kappa)
heavy: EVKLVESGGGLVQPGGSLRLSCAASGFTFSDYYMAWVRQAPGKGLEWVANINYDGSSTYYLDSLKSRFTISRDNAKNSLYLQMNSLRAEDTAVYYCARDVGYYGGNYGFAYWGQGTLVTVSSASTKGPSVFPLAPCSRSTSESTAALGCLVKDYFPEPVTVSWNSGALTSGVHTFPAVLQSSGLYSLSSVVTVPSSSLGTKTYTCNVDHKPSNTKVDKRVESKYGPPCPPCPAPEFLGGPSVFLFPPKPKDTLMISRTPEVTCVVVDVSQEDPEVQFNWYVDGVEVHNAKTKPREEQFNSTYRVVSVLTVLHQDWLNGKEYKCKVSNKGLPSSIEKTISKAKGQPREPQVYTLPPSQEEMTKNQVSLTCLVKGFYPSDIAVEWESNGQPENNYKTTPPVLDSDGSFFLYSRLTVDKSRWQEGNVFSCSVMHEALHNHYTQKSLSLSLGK
light: DIQMTQSPSSLSASVGDRVTITCRASDNIYSYLAWYQQKPGKAPKLLIYNAKTLAEGVPSRFSGSGSGTDFTLTISSLQPEDFATYYCQQHYGSPLTFGQGTKLEIKRTVAAPSVFIFPPSDEQLKSGTASVVCLLNNFYPREAKVQWKVDNALQSGNSQESVTEQDSKDSTYSLSSTLTLSKADYEKHKVYACEVTHQGLSSPVTKSFNRGEC
notes: Humanized IgG4 (S228P)/kappa
Take B3: in experiment [1], it took 0.077 nM to reach a half-maximal effect (EC50). In experiment [2], this molecule registered a Kd of 2.48 nM.

B4: h1701-009 (antibody, human IgG4 S228P, kappa, V domains shown)
VH: QVQLVQSGAEVKKPGASVKVSCKASGYTFTDYYMNWVRQAPGQGLEWMGDIIPNNGGSKYNQKFKDRVTMTTDTSTSTAYMELRSLRSDDTAVYYCATWGYGSSYRWFDYWGQGTLVTVSS
VL: DIQMTQSPSSLSASVGDRVTITCLASQPIGIWLAWYQQKPGKAPKLLIYAATSLADGVPSRFSGSGSGTDFTFTISSLQPEDIATYYCQQLYSSPWTFGGGTKVEIKR
notes: Humanized IgG4 (S228P)/kappa
Take B4: the EC50 in experiment [3] came out at 0.503 nM; in experiment [1] it was 0.187 nM. Besides, the Kd in experiment [4] is 0.599 nM; in experiment [2] it was 1.34 nM.

B5: Ch1799 (antibody, human IgG4 S228P, kappa, V domains shown)
VH: EVKLVESEGGLVQPGSSMKLSCTASGFTFSDYYMAWVRQVPEKGLEWVANINYDGSSTYYLDSLKSRFIISRDNAKNILYLQMNSLKSDDTATYYCARDVGYYGGNYGFAYWGQGTLVTVSA
VL: DIQMTQSPASLSASVGETVTITCRASDNIYSYLAWYQQKQGKSPQLLVYNAKTLAEGVPSRFSGSGSGTQFSLKINSLQPEDFGSYYCQQHYGSPLTFGAGTKLELKR
For the molecule B5, it took 0.08 nM to reach a half-maximal effect in experiment [1] (EC50). The Kd in experiment [2] was 1.76 nM.

B6: ABTim-3 (antibody, V domains shown)
VH: QVQLQQPGAELVKPGASVKMSCKASGYTFTSYNMHWIKQTPGQGLEWIGDIYPGNGDTSYNQKFKGKATLTADKSSSTVYMQLSSLTSEDSAVYYCARVGGAFPMDYWGQGTSVTVSS
VL: DIVLTQSPASLAVSLGQRATISCRASESVEYYGTSLMQWYQQKPGQPPKLLIYAASNVESGVPARFSGSGSGTDFSLNIHPVEEDDIAIYFCQQSRKDPSTFGGGTKLEIK
Take B6: in experiment [5], the “EC50 (read off the curve)” value is approximately 0.2 nM.
